Measured values: patent US20150011567

Tests used:
[1] = tested on: biotinylated H4-derived unphosphorylated peptide TVTAMDVVYALKRQGRT
[2] = tested on: biotinylated human histone H2B derived peptide KRSRKESYSVYVYKVL
[3] = tested on: purified human H2A recombinant protein (NEB)
[4] = tested on: purified human H2B recombinant protein (NEB)
[5] = tested on: purified human H3 recombinant protein (NEB)
[6] = biological target: purified human H4 recombinant protein (NEB) (UniProt P62805)

Sequence of recombinant GST-WEE1 protein (Invitrogen) (chain, as listed by the source): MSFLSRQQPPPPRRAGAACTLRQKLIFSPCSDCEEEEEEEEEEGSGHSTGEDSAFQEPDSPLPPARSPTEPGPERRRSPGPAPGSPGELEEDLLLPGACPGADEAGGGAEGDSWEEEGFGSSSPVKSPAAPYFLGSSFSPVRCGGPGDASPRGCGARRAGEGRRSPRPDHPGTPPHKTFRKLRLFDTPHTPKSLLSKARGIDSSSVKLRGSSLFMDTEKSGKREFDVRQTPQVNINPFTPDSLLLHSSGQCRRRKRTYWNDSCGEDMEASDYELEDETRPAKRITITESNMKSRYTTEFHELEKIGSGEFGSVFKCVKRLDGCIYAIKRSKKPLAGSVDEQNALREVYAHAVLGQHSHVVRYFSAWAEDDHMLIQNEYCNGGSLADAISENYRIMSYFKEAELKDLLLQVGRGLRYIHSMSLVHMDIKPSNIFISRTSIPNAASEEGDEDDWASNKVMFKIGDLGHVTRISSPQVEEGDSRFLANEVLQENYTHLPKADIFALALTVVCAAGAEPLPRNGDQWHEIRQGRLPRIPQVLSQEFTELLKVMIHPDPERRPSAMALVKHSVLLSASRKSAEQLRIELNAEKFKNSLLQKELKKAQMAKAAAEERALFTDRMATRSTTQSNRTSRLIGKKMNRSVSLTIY

Row | Substance | in vitro kinase assay on plate-bound peptide, ELISA with pY88-H4 antibodies [1] | Peptide Immunosandwich Assay (PIA), H2B Tyr37-phosphorylation read at 450 nm [2] | in vitro kinase assay, immunoblot with pTyr37-H2B antibody [3] | in vitro kinase assay, immunoblot with pTyr37-H2B antibody [4] | in vitro kinase assay, immunoblot with pTyr37-H2B antibody [5] | in vitro kinase assay, immunoblot with pTyr37-H2B antibody [6]
1 | purified WEE1 protein (Examples 5 and 7) | Incubation of H4 peptide with WEE1 and Ack1 protein resulted in robust H4 Tyr88-phosphorylation | Purified WEE1 exhibited robust H2B Tyr37-phosphorylation | – | – | – | –
2 | recombinant GST-WEE1 protein (Invitrogen) | – | – | failed to phosphorylate other three core histones, H2A, H3 and H4 | When purified WEE1 and H2B were incubated, H2B was Tyr37-phosphorylated | failed to phosphorylate other three core histones, H2A, H3 and H4 | failed to phosphorylate other three core histones, H2A, H3 and H4
